The test concerns the target RecQ-ΔΔC (E. coli RecQ variant lacking both the WH and HRDC domains) (Escherichia coli).

For one substance, average unwinding processivity of RecQ-ΔΔC with SSB results are on record in publication PMC6144805.

Chain of E. coli ssDNA-binding protein (SSB) (P0AGE0 whole entry): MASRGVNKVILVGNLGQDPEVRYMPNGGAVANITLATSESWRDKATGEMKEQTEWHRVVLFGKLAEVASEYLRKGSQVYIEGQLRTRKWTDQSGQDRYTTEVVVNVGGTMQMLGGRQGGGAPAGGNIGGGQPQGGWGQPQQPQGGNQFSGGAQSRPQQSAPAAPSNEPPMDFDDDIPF

Take “E. coli ssDNA-binding protein (SSB) (from UniProt P0AGE0 1-178) (natural protein)”: the average unwinding processivity of RecQ-ΔΔC with SSB was 2.5 kb.
